Results from publication PMC9482650, “Quantitative fragmentomics allow affinity mapping of interactomes” (Nature Communications, 2022).
Each block holds one binder with its values, some of them ahead of it.

What was measured:
Test in all cases: holdup assay
Design in all cases: key: below the threshold = too weak to quantify, mostly under pKd 3.1 to 4
APBA1_1, Q02410 = target: T1, APBA1_1, Q02410
T1 sequence (Q02410 651-752, limits assumed, looked up): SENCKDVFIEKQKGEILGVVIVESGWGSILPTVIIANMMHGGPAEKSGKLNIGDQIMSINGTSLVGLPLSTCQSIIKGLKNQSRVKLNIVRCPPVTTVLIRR

CASK, O14936 = target: CASK, O14936
Sequence of CASK, O14936 (O14936 487-570): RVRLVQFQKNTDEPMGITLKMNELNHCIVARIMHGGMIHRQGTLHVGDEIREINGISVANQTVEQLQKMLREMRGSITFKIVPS

DLG3_1, Q92796 = target: T2, DLG3_1, Q92796
T2 sequence (Q92796 125-227, limits assumed, looked up): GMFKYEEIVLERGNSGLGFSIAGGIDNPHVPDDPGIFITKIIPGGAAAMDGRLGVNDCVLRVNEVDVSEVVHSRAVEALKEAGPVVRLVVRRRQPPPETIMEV

DLG3_2, Q92796 = target: T3, DLG3_2, Q92796
T3 sequence (Q92796 221-321, limits assumed, looked up): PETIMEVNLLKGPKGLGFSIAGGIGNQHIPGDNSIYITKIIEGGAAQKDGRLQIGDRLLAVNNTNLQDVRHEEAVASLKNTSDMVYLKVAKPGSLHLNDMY

DLG3_3, Q92796 = target: T4, DLG3_3, Q92796
T4 sequence (Q92796 374-475, limits assumed, looked up): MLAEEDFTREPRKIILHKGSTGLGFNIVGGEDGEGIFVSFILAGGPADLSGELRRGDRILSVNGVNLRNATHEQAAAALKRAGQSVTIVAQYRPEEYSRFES

DLG4_2, P78352 = target: DLG4_2, P78352
Sequence of DLG4_2, P78352 (P78352 155-259): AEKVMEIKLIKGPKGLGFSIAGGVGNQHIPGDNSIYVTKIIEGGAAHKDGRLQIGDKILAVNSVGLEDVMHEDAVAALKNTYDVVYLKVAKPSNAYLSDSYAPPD

FRMPD2_3, Q68DX3 = target: FRMPD2_3, Q68DX3
Sequence of FRMPD2_3, Q68DX3 (Q68DX3 1073-1166): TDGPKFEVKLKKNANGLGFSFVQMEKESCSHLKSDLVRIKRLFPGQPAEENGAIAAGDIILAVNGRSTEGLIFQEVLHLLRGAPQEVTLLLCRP

GIPC2, Q8TF65 = target: GIPC2, Q8TF65
Sequence of GIPC2, Q8TF65 (Q8TF65 112-203): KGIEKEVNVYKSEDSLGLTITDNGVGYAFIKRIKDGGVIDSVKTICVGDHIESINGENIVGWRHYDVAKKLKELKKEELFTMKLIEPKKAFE

GRIP1_2, Q9Y3R0 = target: T5, GRIP1_2, Q9Y3R0
T5 sequence (Q9Y3R0 145-248, limits assumed, looked up): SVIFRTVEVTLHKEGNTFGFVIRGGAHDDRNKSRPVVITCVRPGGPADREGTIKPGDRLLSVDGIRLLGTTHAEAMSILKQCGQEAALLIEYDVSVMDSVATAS

Inadl_3, Q8NI35 = target: Inadl_3, Q8NI35
Sequence of Inadl_3, Q8NI35 (Q8NI35 359-469): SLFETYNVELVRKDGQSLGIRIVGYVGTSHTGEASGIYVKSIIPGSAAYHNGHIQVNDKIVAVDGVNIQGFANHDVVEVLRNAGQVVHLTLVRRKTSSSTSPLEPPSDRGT

Inadl_8, Q8NI35 = target: Inadl_8, Q8NI35
Sequence of Inadl_8, Q8NI35 (Q8NI35 1425-1530): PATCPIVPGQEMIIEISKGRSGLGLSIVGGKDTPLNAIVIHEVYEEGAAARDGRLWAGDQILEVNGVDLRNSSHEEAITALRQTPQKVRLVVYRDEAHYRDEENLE

Inadl_9, Q8NI35 = target: Inadl_9, Q8NI35
Sequence of Inadl_9, Q8NI35 (Q8NI35 1530-1615): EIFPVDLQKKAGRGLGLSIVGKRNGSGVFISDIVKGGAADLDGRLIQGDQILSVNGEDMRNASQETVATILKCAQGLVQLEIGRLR

LIN7B, Q9HAP6 = target: T6, LIN7B, Q9HAP6
T6 sequence (Q9HAP6 88-185, limits assumed, looked up): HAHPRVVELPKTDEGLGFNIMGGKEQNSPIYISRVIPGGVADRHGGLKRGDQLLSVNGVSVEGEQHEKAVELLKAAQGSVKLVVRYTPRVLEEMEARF

LNX1_1, Q8TBB1 = target: LNX1_1, Q8TBB1
Sequence of LNX1_1, Q8TBB1 (Q8TBB1 261-371): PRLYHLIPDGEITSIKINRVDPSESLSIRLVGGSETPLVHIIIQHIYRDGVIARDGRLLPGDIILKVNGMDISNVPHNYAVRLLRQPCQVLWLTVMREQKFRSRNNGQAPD

LNX1_2, Q8TBB1 = target: LNX1_2, Q8TBB1
Sequence of LNX1_2, Q8TBB1 (Q8TBB1 371-470): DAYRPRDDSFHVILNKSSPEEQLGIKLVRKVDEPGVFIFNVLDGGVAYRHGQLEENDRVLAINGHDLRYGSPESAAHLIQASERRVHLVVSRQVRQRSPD

MAGI1_1, Q96QZ7 = target: MAGI1_1, Q96QZ7
Sequence of MAGI1_1, Q96QZ7 (Q96QZ7 1-106): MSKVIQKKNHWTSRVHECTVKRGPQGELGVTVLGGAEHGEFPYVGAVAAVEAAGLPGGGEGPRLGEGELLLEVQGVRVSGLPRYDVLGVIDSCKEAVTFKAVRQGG

MAGI2_4, Q86UL8 = target: MAGI2_4, Q86UL8
Sequence of MAGI2_4, Q86UL8 (Q86UL8 772-865): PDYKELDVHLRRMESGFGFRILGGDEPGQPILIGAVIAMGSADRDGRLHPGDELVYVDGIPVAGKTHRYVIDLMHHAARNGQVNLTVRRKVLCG

MAGI2_6, Q86UL8 = target: MAGI2_6, Q86UL8
Sequence of MAGI2_6, Q86UL8 (Q86UL8 1141-1229): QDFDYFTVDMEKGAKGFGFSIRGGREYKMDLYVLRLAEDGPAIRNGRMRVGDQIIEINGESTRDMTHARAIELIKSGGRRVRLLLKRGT

MPP2, Q14168 = target: T7, MPP2, Q14168
T7 sequence (Q14168 180-250, limits assumed, looked up): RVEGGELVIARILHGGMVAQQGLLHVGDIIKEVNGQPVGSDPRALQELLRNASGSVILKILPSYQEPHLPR

NHERF3_3, Q5T2W1 = target: T8, NHERF3_3, Q5T2W1
T8 sequence (Q5T2W1 238-333, limits assumed, looked up): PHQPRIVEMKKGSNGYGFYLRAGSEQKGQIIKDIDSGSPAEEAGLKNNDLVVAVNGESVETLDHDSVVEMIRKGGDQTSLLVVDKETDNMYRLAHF

NHERF4_4, Q86UT5 = target: NHERF4_4, Q86UT5
Sequence of NHERF4_4, Q86UT5 (Q86UT5 464-550): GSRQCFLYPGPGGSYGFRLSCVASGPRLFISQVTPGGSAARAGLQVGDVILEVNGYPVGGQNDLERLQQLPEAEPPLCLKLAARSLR

PTPN13_1, Q12923 = target: T9, PTPN13_1, Q12923
T9 sequence (Q12923 1088-1188, limits assumed, looked up): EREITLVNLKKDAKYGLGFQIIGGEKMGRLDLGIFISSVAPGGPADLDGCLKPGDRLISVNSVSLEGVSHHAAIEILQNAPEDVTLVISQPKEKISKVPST

SNTG1, Q9NSN8 = target: T10, SNTG1, Q9NSN8
T10 sequence (Q9NSN8 52-150, limits assumed, looked up): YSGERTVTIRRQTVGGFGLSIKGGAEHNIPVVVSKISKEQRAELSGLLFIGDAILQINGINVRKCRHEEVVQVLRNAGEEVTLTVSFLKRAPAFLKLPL

TJP1_3, Q07157 = target: TJP1_3, Q07157
Sequence of TJP1_3, Q07157 (Q07157 416-512): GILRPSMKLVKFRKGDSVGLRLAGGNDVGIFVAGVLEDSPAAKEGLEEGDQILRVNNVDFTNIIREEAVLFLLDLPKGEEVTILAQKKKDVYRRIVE

TJP3_3, O95049 = target: T11, TJP3_3, O95049
T11 sequence (O95049 375-456, limits assumed, looked up): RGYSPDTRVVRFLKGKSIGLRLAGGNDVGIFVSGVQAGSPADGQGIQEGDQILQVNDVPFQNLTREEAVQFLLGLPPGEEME

TX1BP3, O14907 = target: T12, TX1BP3, O14907
T12 sequence (O14907 10-122, limits assumed, looked up): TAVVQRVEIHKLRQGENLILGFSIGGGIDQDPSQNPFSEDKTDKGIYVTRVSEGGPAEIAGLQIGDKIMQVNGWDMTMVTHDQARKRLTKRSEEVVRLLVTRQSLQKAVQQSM

[1] = plain residues with an end cap or a label only (N-terminal biotin on a linker: ahx)
[2] = plain residues with an end cap or a label only (N-terminal biotin on a linker: ttds)

pKd (APBA1_1, Q02410; [1]): below the threshold | pKd (CASK, O14936; [1]): below the threshold | pKd (DLG3_1, Q92796; [1]): below the threshold | pKd (DLG3_2, Q92796; [1]): below the threshold | pKd (DLG3_3, Q92796; [1]): below the threshold | pKd (DLG4_2, P78352; [1]): below the threshold | pKd (FRMPD2_3, Q68DX3; [1]): below the threshold | pKd (GIPC2, Q8TF65; [1]): below the threshold | pKd (GRIP1_2, Q9Y3R0; [1]): below the threshold | pKd (Inadl_3, Q8NI35; [1]): below the threshold | pKd (Inadl_8, Q8NI35; [1]): below the threshold | pKd (Inadl_9, Q8NI35; [1]): below the threshold | pKd (LIN7B, Q9HAP6; [1]): below the threshold | pKd (LNX1_1, Q8TBB1; [1]): below the threshold | pKd (LNX1_2, Q8TBB1; [1]): below the threshold | pKd (MAGI1_1, Q96QZ7; [1]): below the threshold | pKd (MAGI2_4, Q86UL8; [1]): below the threshold | pKd (MAGI2_6, Q86UL8; [1]): below the threshold | pKd (MPP2, Q14168; [1]): below the threshold | pKd (NHERF3_3, Q5T2W1; [1]): below the threshold | pKd (NHERF4_4, Q86UT5; [1]): below the threshold | pKd (PTPN13_1, Q12923; [1]): below the threshold | pKd (SNTG1, Q9NSN8; [1]): below the threshold | pKd (TJP1_3, Q07157; [1]): below the threshold | pKd (TJP3_3, O95049; [1]): below the threshold | pKd (TX1BP3, O14907; [1]): below the threshold
Binder: PSASCAVTAA [PDLIM4, P50479;P50479-2]

pKd (APBA1_1, Q02410; [2]): below the threshold | pKd (CASK, O14936; [2]): below the threshold | pKd (DLG3_1, Q92796; [2]): 3.75 | pKd (DLG3_2, Q92796; [2]): 4.35 | pKd (DLG3_3, Q92796; [2]): 4.02 | pKd (DLG4_2, P78352; [2]): 4.2 | pKd (FRMPD2_3, Q68DX3; [2]): below the threshold | pKd (GIPC2, Q8TF65; [2]): 4.02 | pKd (GRIP1_2, Q9Y3R0; [2]): 3.69 | pKd (Inadl_3, Q8NI35; [2]): 3.66 | pKd (Inadl_8, Q8NI35; [2]): 3.61 | pKd (Inadl_9, Q8NI35; [2]): below the threshold | pKd (LIN7B, Q9HAP6; [2]): 3.85 | pKd (LNX1_1, Q8TBB1; [2]): below the threshold | pKd (LNX1_2, Q8TBB1; [2]): below the threshold | pKd (MAGI1_1, Q96QZ7; [2]): below the threshold | pKd (MAGI2_4, Q86UL8; [2]): below the threshold | pKd (MAGI2_6, Q86UL8; [2]): 4.06 | pKd (MPP2, Q14168; [2]): below the threshold | pKd (NHERF3_3, Q5T2W1; [2]): below the threshold | pKd (NHERF4_4, Q86UT5; [2]): below the threshold | pKd (PTPN13_1, Q12923; [2]): below the threshold | pKd (SNTG1, Q9NSN8; [2]): 4.28 | pKd (TJP1_3, Q07157; [2]): below the threshold | pKd (TJP3_3, O95049; [2]): below the threshold | pKd (TX1BP3, O14907; [2]): 4.37
Binder: PVRVCEETSL [OTULIN, Q96BN8]
